B1: Azoarcus group I ribozyme (parent)
chain: GUGCCUUGCGCCGGGAAACCACGCAAGGGAUGGUGUCAAAUUCGGCGAAACCUAAGCGCCCGCCCGGGCGUAUGGCAACGCCGAGCCAAGCUUCGGCGCCUGCGCCGAUGAAGGUGUAGAGACUAGACGGCACCCACCUAAGGCAAACGCUAUGGUGAAGGCAUAGUCCAGGGAGUGGCGAAAGUCACACAAACCGG

Variants of: B1
Assay: reverse-splicing fitness (ratio to wild type); higher = more active; in vitro selection; Mg2+ level not given
Procedure, shortened: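 An in vitro group I ribozyme library with randomized positions was T7-transcribed and gel-purified. In triplicate, 10 pmol RNA in EPPS pH 7.5 was reacted with 50 pmoles of a 30-nt RNA substrate for 1 h at 37 °C across several added MgCl2 levels (1–48 mM), then stopped with EDTA. Products were reverse transcribed from a substrate-complementary primer, PCR-amplified and sequenced (HiSeq 4000). Fitness is a variant's read proportion after selection over that before, normalised to wild type.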

Variant | reverse-splicing fitness
C82U A111U A120C A145G C169G U176A | 0.0152
C82U A111U A120C A145G C169U U176C | 0.0162
C82U A111U A120C A145G C169U U176A | 0.0163
C82U A111U A120C A145G C169U U176G | 0.00475
C82U A111U A120C C150U C169A U176G | 0.00474
C82U A111U A120C C150U C169A U176A | 0.015
C82U A111U A120C C150U C169A U176C | 0.0129
C82U A111U A120C A145U C150A | 0.00878
C82U A111U A120C A145U C150G | 0.0076
C82U A111U A120C A145U C150U | 0.0196
C82U A111U A120C C150G | 0.00758
C82U A111U A120C C150U | 0.0179
C82U A111U A120C C150A | 0.0106
C82U A111U A120C A145U C150U C169A U176G | 0.00505
C82U A111U A120C A145U C150U C169A U176C | 0.00781
C82U A111U A120C A145U C150U C169A U176A | 0.0119
C82U A111U A120C A145U U176G | 0.00445
C82U A111U A120C A145U U176C | 0.0165
C82U A111U A120C A145U U176A | 0.0127
C82U A111U A120G A145C C150A C169A U176A | 0.0108
C82U A111U A120G A145C C150A C169A U176G | 0.00517

Variant | reverse-splicing fitness
C82U A111U A120G A145C C150A C169A U176C | 0.0062
C82U A111U A120C A145G C150U U176G | 0.00597
C82U A111U A120C A145G C150U U176C | 0.0214
C82U A111U A120C A145G C150U U176A | 0.0116
C82U A111U A120C A145G C150U C169A U176G | 0.00576
C82U A111U A120C C150G C169U U176A | 0.0091
C82U A111U A120C C150G C169U U176C | 0.0149
C82U A111U A120C C150G C169U U176G | 0.00538
C82U A111U A120C A145U C150A C169G U176G | 0.00527
C82U A111U A120C A145U C150A C169G U176C | 0.0124
C82U A111U A120C A145U C150A C169G U176A | 0.0124
C82U A111U A120C C150U C169G | 0.00829
C82U A111U A120C C150U C169U | 0.0134
C82U A111U A120C C150U C169A | 0.00987
C82U A111U A120C A145U C169A | 0.00631
C82U A111U A120C A145U C169G | 0.00727
C82U A111U A120C A145U C169U | 0.0107
C82U A111U A120C A145U C150G U176G | 0.00331
C82U A111U A120C A145U C150G U176C | 0.00709
C82U A111U A120C A145U C150G U176A | 0.00587
C82U A111U A120C A145G C169A U176A | 0.0202

Variant | reverse-splicing fitness
C82U A111U A120C A145G C169A U176C | 0.0232
C82U A111U A120C A145G C169A U176G | 0.00456
C82U A111U A120G A145C C150A C169G U176A | 0.0242
C82U A111U A120G A145C C150A C169G U176C | 0.0136
C82U A111U A120G A145C C150A C169G U176G | 0.00478
C82U A111U A120C C150A C169G U176A | 0.0178
C82U A111U A120C C150A C169G U176C | 0.0181
C82U A111U A120C C150A C169G U176G | 0.00669
C82U A111U A120G | 0.0168
C82U A111U A120C A145U C169G U176C | 0.00955
C82U A111U A120C A145U C169G U176A | 0.00882
C82U A111U A120C A145U C169G U176G | 0.00433
C82U A111U A120C A145U C150U C169G U176G | 0.00554
C82U A111U A120C A145U C150U C169G U176A | 0.011
C82U A111U A120C A145U C150U C169G U176C | 0.0115
C82U A111U A120C A145U C150U U176A | 0.0114
C82U A111U A120C A145U C150U U176C | 0.0147
C82U A111U A120C A145U C150U U176G | 0.0051
C82U A111U A120C A145G U176C | 0.0219
C82U A111U A120C A145G U176G | 0.00517
C82U A111U A120C A145G U176A | 0.0152

Variant | reverse-splicing fitness
C82U A111U A120G A145C C150A C169U U176A | 0.0189
C82U A111U A120C C150A C169U U176A | 0.0229
C82U A111U A120C C150A C169U U176C | 0.0203
C82U A111U A120C C150A C169U U176G | 0.00688
C82U A111U A120G A145C | 0.0134
C82U A111U A120C A145G C169A | 0.0083
C82U A111U A120C A145G C169U | 0.0112
C82U A111U A120C A145G C169G | 0.00779
C82U A111U A120C U176A | 0.0144
C82U A111U A120C U176G | 0.00482
C82U A111U A120C U176C | 0.0191
C82U A111U A120C A145U C150A C169A U176G | 0.00478
C82U A111U A120C A145U C150A C169A U176A | 0.0106
C82U A111U A120C A145U C150A C169A U176C | 0.0094
C82U A111U A120C C150U C169G U176A | 0.0138
C82U A111U A120C C150U C169G U176G | 0.00509
C82U A111U A120C C150U C169G U176C | 0.0147
C82U A111U A120C A145G C150U C169U U176C | 0.0155
C82U A111U A120C A145G C150U C169U U176G | 0.00474
C82U A111U A120C A145G C150U C169U U176A | 0.0159
C82U A111U A120C A145U | 0.0286
